The source of these data is PMC11066524, “The molecular determinants of classical pathway complement inhibition by OspEF-related proteins of Borrelia burgdorferi” (The Journal of Biological Chemistry, 2024).

Residue numbers refer to the chain shown, from its start.

The chains are these.
B1: full-length ElpQ (ElpQ_(19-343)) (natural protein)
chain: KNFATGKDIKQNSEGKIKGFVNKILDPVKDKIASSGTKVDEVAKKLQEEEKEELMQGDDPNGSGINPPPVLPENIHNNALVLKAIEQSDGQQEKKVEEAEAKVEENKEKQENTEENIKEKEIIDEQNKQELAKAKEEEQQKEQKRHQEEQQRKAKAEKEKREREEAEQQKRQQEEEEKRQVDNQIKTLIAKIDEINENIDVIKWQTTVGPQGVIDRITGPVYDDFTNGNNSIRETWEGLEEESEDEGLGKLLKELSDARDALRTKLNEGNKPYTGYEEPKLKESVNVSEIKEDLEKLKSKLEEVKKYLKDSSKFEEIKGYISDSQ
notes: ElpQ, outer surface lipoprotein of the OspEF-related protein family, Borrelia burgdorferi strain B31, UniProt Q9S035, residues 19-343 (325 residues); also called Apo-ElpQ_(19-343)
B2: ElpQA4 (domain or fragment, Borrelia burgdorferi strain B31, UniProt Q9S035 181-343, looked up)
chain: REEAEQQKRQQEEEEKRQVDNQIKTLIAKIDEINENIDVIKWQTTVGPQGVIDRITGPVYDDFTNGNNSIRATWEGLAAESADEGLGKLLKELSDARDALRTKLNEGNKPYTGYEEPKLKESVNVSEIKEDLEKLKSKLEEVKKYLKDSSKFEEIKGYISDSQ
notes: Synthetic E. coli codon-optimised gene fragment cloned BamHI/NotI into pT7HMT
B3: ElpQ_(181-343) (domain or fragment)
chain: B2 chain with A72E, A78E, A79E, A82E
notes: pT7HMT adds, as far as I recall, an N-terminal His-Myc tag with a TEV site that is usually cleaved; also called C-terminal truncation construct of ElpQ
B4: ElpQ_(181-340) (domain or fragment)
chain: REEAEQQKRQQEEEEKRQVDNQIKTLIAKIDEINENIDVIKWQTTVGPQGVIDRITGPVYDDFTNGNNSIRETWEGLEEESEDEGLGKLLKELSDARDALRTKLNEGNKPYTGYEEPKLKESVNVSEIKEDLEKLKSKLEEVKKYLKDSSKFEEIKGYIS
notes: also called ElpQ truncation lacking residues 341 to 343
B5: ElpQ_(Δ290-296) (domain or fragment, Borrelia burgdorferi strain B31, UniProt Q9S035 181-343, looked up)
chain: REEAEQQKRQQEEEEKRQVDNQIKTLIAKIDEINENIDVIKWQTTVGPQGVIDRITGPVYDDFTNGNNSIRETWEGLEEESEDEGLGKLLKELSDARDALRTKLNEGNKPKLKESVNVSEIKEDLEKLKSKLEEVKKYLKDSSKFEEIKGYISDSQ
notes: Synthetic E. coli codon-optimised gene fragment cloned BamHI/NotI into pT7HMT; also called Δ290 to 296

The Kd is a measure of binding affinity in units of concentration. What is called koff is the rate constant with which the complex falls apart. By kon is commonly meant the rate constant with which the complex forms. A lower kon goes with slow association.

One assay deals with T1, full-length activated human C1s (human, UniProt P09871 16-437; P09871 438-688).
T1 construct: also called active C1s
T1 sequence 1: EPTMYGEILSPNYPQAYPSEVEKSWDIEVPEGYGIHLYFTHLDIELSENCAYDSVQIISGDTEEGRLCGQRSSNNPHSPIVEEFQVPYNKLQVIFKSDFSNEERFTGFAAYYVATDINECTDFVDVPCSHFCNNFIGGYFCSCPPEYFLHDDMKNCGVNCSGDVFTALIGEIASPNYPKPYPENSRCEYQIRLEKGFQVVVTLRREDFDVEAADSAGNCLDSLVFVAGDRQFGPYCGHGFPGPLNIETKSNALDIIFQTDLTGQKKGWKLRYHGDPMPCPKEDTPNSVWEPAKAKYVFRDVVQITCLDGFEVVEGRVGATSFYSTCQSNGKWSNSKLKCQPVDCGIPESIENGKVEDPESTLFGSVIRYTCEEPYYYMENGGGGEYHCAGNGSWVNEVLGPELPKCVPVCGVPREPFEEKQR
T1 sequence 2: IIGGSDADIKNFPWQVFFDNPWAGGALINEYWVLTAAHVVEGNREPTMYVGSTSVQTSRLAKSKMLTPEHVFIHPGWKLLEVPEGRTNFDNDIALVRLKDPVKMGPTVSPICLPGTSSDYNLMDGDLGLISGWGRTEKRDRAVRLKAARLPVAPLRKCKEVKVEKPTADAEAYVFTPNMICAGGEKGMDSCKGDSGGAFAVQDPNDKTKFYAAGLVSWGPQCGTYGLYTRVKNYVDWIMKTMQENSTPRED
The assay can be described thus: HDX-MS; ElpQ_(19-343) alone or with a 3-fold molar excess of full-length activated C1s, on ice ~20 min before analysis; exchange 0 s to 2 h at 20 °C in D2O buffer (25 mM phosphate pD 7.5, 0.1 M NaCl); triplicate. As to conditions: both partners purified.
B1: the binding result is recorded as “binds”.

A further assay has as its target T1, full-length activated human C1s. The assay can be described thus: SPR; steady-state fit (K_(D, ss)), 1:1 model, of the same injection series as a2; ElpQ proteins amine-coupled to a CMD200 chip; activated C1s or C1r 0-200 nM; HBS-T Ca2+ (10 mM Hepes pH 7.3, 140 mM NaCl, 0.005% Tween-20, 5 mM CaCl2). The following applies: both partners purified. In general terms: In SPR one partner is held on a chip, and binding of the other changes the refractive index at the surface.
In turn, B2 registered an equilibrium dissociation constant (Kd) of approximately 464 nM.

The molecule B3 returned an equilibrium dissociation constant (Kd) of 39.3 nM.

On to B4, for which the Kd is 55.6 nM.

With B5, the dissociation constant Kd is approximately 665 nM.

In a further assay the target is T2, activated full-length human C1r (human, UniProt P00736 18-705).
T2 construct: as far as I recall it is cleaved at Arg463-Ile464 of P00736 and lacks the signal peptide (1-17); also called active C1r
T2 sequence: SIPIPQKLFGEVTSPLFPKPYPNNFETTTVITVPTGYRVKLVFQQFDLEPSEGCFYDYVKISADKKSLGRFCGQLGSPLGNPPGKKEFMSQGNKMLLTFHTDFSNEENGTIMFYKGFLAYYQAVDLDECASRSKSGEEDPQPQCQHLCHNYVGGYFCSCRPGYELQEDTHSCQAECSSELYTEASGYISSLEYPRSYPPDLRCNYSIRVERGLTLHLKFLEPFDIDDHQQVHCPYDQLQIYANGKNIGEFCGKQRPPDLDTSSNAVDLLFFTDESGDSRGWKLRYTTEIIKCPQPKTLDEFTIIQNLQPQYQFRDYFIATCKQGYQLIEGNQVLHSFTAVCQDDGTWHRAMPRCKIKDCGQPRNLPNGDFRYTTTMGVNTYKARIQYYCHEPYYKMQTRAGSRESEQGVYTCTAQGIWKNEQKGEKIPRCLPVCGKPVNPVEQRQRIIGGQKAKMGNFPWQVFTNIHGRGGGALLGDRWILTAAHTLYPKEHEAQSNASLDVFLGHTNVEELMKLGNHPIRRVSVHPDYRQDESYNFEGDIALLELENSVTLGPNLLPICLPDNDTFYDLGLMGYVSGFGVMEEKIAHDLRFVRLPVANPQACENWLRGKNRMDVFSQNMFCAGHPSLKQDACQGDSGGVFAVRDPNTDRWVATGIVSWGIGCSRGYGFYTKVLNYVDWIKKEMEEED
The assay is described as above. As to conditions: both partners purified.
As to B3, the dissociation constant Kd worked out at 221 nM.

On to B4, for which the Kd came out at 181 nM.

In the next assay the target is T1, full-length activated human C1s. Kind of assay: SPR; kinetic fit (K_(D, kin)), 1:1 Langmuir; ElpQ/ElpB proteins amine-coupled to a CMD200 chip; activated C1s or C1r injected 0-200 nM, multicycle; HBS-T Ca2+ (10 mM Hepes pH 7.3, 140 mM NaCl, 0.005% Tween-20, 5 mM CaCl2); 30 μl/min; association 120 s (C1r 480 s), dissociation 180 s. As to conditions: both partners purified.
B2 yielded a Kd of 173 nM, a dissociation rate constant (koff) of 0.0103 s⁻¹ and a kon of 60100 M⁻¹ s⁻¹.

As for B3, the Kd stood at 14.5 nM, the off-rate (koff) is 0.00683 s⁻¹ and the on-rate constant (kon) is 477000 M⁻¹ s⁻¹.

As to B4, the dissociation constant (Kd) was determined as 20.8 nM, the koff amounted to 0.00794 s⁻¹ and the kon worked out at 425000 M⁻¹ s⁻¹.

As for B5, the Kd was approximately 623 nM, the koff was determined as 0.00746 s⁻¹ and the kon is 22500 M⁻¹ s⁻¹.

The target in another assay is T2, activated full-length human C1r. The assay is described as above. The following applies: both partners purified.
Molecule B2 registered a koff of 0.493 s⁻¹ and an on-rate constant (kon) of 2440 M⁻¹ s⁻¹.

Turning to B3, binding was put at a Kd of 151 nM, the koff stood at 0.00316 s⁻¹ and the on-rate (kon) amounted to 21700 M⁻¹ s⁻¹.

Turning to B4, the affinity, expressed as Kd, was 113 nM; the koff worked out at 0.00277 s⁻¹; the kon amounted to 26400 M⁻¹ s⁻¹.
